# Data: the nanobody polyreactivity screen of Harvey et al. (2022)
# Experiment: yeast display, Sf9 membrane polyspecificity reagent, FACS + sequencing; frameworks hold sequencing errors
# How it was run: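 A synthetic nanobody library was expressed on Saccharomyces cerevisiae BJ5465 by galactose induction for 36–48 hours. The library was stained for 1 hour at 4 °C with 10% biotinylated, detergent-solubilized Sf9 membrane reagent and enriched with streptavidin microbeads before FACS. Low and high (top ~1%) gates were set on anti-HA fluorescence for expression and streptavidin fluorescence for reagent binding, and each polyreactivity label reflects the gate of origin.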
sequence,measurement,value
QVQLVESGRGLDQAGGSLRLSCAASASTFAWYDMGCYRHAPGKEREFVAAIDYGGGSTYADSVKGRFTISRDNAKNTVYLQMNSLKPEDTAVYYCNADNWVYLYDYWGQGTQVTVSS,polyreactivity (PSR sort gate),low polyreactivity
QVQLVESGRGLFQAGGSLRLSCAASGFTGSYAMGWYRQAPGKVREFVAAISYRGSSTYYADSVKGRFTISRDNAKNTVYLQMNSLKPEDTAVYYCNSVHYVLYGDYDYWGQGTQVTVSS,polyreactivity (PSR sort gate),high polyreactivity
QVQLVESGRGLLQAGGSLRLSCASSGGIFPKYAMGWYRQAPGKEREFVASISYRGGSTYYADSVKGRFTISRDNAKNTVYFQMNSLKPDDTAVFYCAKPTYRFYWGDFDYWGQGSQVTVSS,polyreactivity (PSR sort gate),low polyreactivity
QVQLVESGRGLVHAGGSLRLSCAASGSIFSPYAMGWYRPAPGKEREFVASITFNGGSTYYADSVKGRFTISRDNAKNTVYLQMTSLKPEDTAVYYCAATYWYDTYWLMDYWGQGTQVTVSS,polyreactivity (PSR sort gate),high polyreactivity
QVQLVESGRGLVQAGCSLRLSCAASGSIFEWYAMGWSRQAPGKEMELVADITYNGGSTYYADSVKGRFTISRDNAKNTVYLQMNSLKPEDTAVYYCAADYFVQVPDYYYASEYGYWGQGTQVTVSS,polyreactivity (PSR sort gate),low polyreactivity
QVQLVESGRGLVQAGGSLLLSCAASGSTFDVYAMGWYRQAPGKERELVAAIRSSGGSTFYADSVKGRFTISRDNAKNIVYLQMNSLKPEDTAVYYCAARSFVVSGYNKYYEYGDWGQGTQVTVSS,polyreactivity (PSR sort gate),low polyreactivity
QVQLVESGRGLVQAGGSLRISCAASGITFVFYAMGWYRQAPGKEIELVAAMSWSGGITYYADSVKGRFTISRDNSKNSVYLQMNSLKPEDTAVYYCAATKRQTKYYGGTTDSIRYYWGQGTQVTVSS,polyreactivity (PSR sort gate),low polyreactivity
QVQLVESGRGLVQAGGSLRLICAASGNIFWYNAMGWYRQAPGKERELVAAINWSGGSTYYADSVKGRFRISRDNAKNTVYLEMNSLKPEDTAVYYCYAEWYDGDALQWVEYWGQGTQVTVSS,polyreactivity (PSR sort gate),high polyreactivity
QVQLVESGRGLVQAGGSLRLICAASRSIFSYNAMGWYRQAPGKERELVAAIRRGGGTYYADSVKGRFTISRDNAKNTVYLQMISLKPEDTAVYYCNAVRGNNFLGDGYWGLGTQVTVSS,polyreactivity (PSR sort gate),high polyreactivity
QVQLVESGRGLVQAGGSLRLRCAASGSTFVYNTMGWYRQAPGKEMELVASISSDGNTYYADSVKGRFTISRDNAKNTVYLQMNSLKPEDTAVFYCGARYYYDWRFVGYDYWGQGTQVTVSS,polyreactivity (PSR sort gate),low polyreactivity
QVQLVESGRGLVQAGGSLRLRCAASGYTFTRYAMGWYRQAPRKESELVAAISTSGGRTYYSDSEKGRFTISRDNAKNTVYLQMNRLKPEDTAVYSCAAPIRDGRYDYWGQGTQVTVSS,polyreactivity (PSR sort gate),high polyreactivity
QVQLVESGRGLVQAGGSLRLRCASSGRTFSSYAMGWSRQAPGKARELVAAITKRGGNTYYADSVKGRFTISRDNAKNTVYLQMNSLNPEDTAVYYCAAGWERFRNYNYWGQVTQVTVSS,polyreactivity (PSR sort gate),high polyreactivity
QVQLVESGRGLVQAGGSLRLSCAASGFTCRWYAIGLYRQAPGKERELVAAISRDGSTNYADSVKGRFTISRDNAKNTVYLQMNSLKPEDTSVYYCAKRYYRYPYSQGDYWGQGTQVTVSS,polyreactivity (PSR sort gate),high polyreactivity
QVQLVESGRGLVQAGGSLRLSCAASGFTFVWYAMGWYIPAPGKERELVAAISRRGTRTYYADSVKGRFTISRDNAKNTVYLQMNSLKPEDTAVYYCASESILGYDYWGQSTQVTVSS,polyreactivity (PSR sort gate),high polyreactivity
QVQLVESGRGLVQAGGSLRLSCAASGIIFYENAMGWYRQAPGKERELVADITQSGGSTYYADSVKGRFTISRDNAKNTVYLQMNSLKPEDTGVYYCAADGYDPYGGLYDYWGQGNQVTVSS,polyreactivity (PSR sort gate),low polyreactivity
QVQLVESGRGLVQAGGSLRLSCAASGIIFYENTMGWYRLAPGKERELVASISWSGGRTYNADSVKGRFTISRDNAKNTVDLQMNSLKPEDTAVYYCAGRPYYLYIYNFWGQGTQVTVSS,polyreactivity (PSR sort gate),high polyreactivity
QVQLVESGRGLVQAGGSLRLSCAASGIILGRYAKGWYRQAPGKERELVAVITGDGSTTYADSVKGRFTISRDNAKNTVYLQMNSLKPEDTAVYYCNAAVEGSLNGYEYWGQGTQVTVSS,polyreactivity (PSR sort gate),low polyreactivity
QVQLVESGRGLVQAGGSLRLSCAASGITFGYYDMGWYRQAPGKERELVAAIDWTGGGTYYADSVKGRFTISRDYAKNTVYLQMNSVKPVDTAVYYCIDHAGGDSGVSYYPEYDYWGQGTQVTLSS,polyreactivity (PSR sort gate),low polyreactivity
QVQLVESGRGLVQAGGSLRLSCAASGITFWYYAMGWYRQAPGKERELVASINRSGGSTYADSVKGRFTISRDNAKITVYLQMNSLKPEDTAVYYCAARLYSSVVRYRYGYWGQGTQVTVSS,polyreactivity (PSR sort gate),high polyreactivity
QVQLVESGRGLVQAGGSLRLSCAASGITLYTNAMGWYRQAPGKEREFVAGISWNGGRTYYADSVKGRFTISRDNAKNTVYLQMNSLKPEDTAVYYCNARFVYRYKYYYWGQGTQVTVSS,polyreactivity (PSR sort gate),high polyreactivity
QVQLVESGRGLVQAGGSLRLSCAASGLTFSKYAMGWYRQAPGKERELVATISRSGGSTYYADSVKGRFTISRDNAKNTVYVQMNSLKPEDTAVYYCAAGSILYGATGEYIYWGQGTQVTVSS,polyreactivity (PSR sort gate),high polyreactivity
QVQLVESGRGLVQAGGSLRLSCAASGLTFVYYDMGWYRQAPGKERELVAAITYIGTSTYYADSVKGRFTISRDNAKNTVYLQMNSLKPEDTAVYYCAAPFPIRSGESWRTDLGYDYWGQGTQVTVSS,polyreactivity (PSR sort gate),low polyreactivity
QVQLVESGRGLVQAGGSLRLSCAASGNTFNVNAMVWYRQEPGKERELVAAITRSGGITYYADSVKGRFTISRDNAKNTVYLQLNSMKPEDTAVYYCAVEGFGYAYYYFYEYDYWGQGTQVTVSS,polyreactivity (PSR sort gate),high polyreactivity
QVQLVESGRGLVQAGGSLRLSCAASGRIFKRYTMGWYRPAPGKETELVAGITFSGGSTYYADSVKGRFTISRDNAKNTVYLQMNSLKREDTAVYYCAADDAYYTYQYDYWGQGTQVTVSS,polyreactivity (PSR sort gate),low polyreactivity
QVQLVESGRGLVQAGGSLRLSCAASGRIFLANAMGWSRQAPGKERELVAAISLSGGRTYYADSVKGRFTISRDIAKNTVYLQMNSLKPEDTAFYYCAAEFYPIGYYGGYDYWGPGTQVTVSS,polyreactivity (PSR sort gate),low polyreactivity
QVQLVESGRGLVQAGGSLRLSCAASGRIFLYYAMGWYRQAPGKEREFVAAITYIGGSTYYADSVKGRFTISRDNAKNTVYLQMNSLKPEDTAVYWGQGTQVTVSS,polyreactivity (PSR sort gate),low polyreactivity
QVQLVESGRGLVQAGGSLRLSCAASGRIFRVNAMGWYRQAPGKERELVAAISWGGGSTYYADSVKGRFTISRDNAKNTVYLQMNSLKPEDTAVYYCATTLVKSQSRYYYWGQGTQVTVSS,polyreactivity (PSR sort gate),high polyreactivity
QVQLVESGRGLVQAGGSLRLSCAASGRIFRVNAMGWYRQAPGKERELVAAISWGGGSTYYADSVKGRFTISRDNAKNTVYLQMNSLKREDTAVYYCATTLVKSQSRYYYWGQGTQVTVSS,polyreactivity (PSR sort gate),high polyreactivity
QVQLVESGRGLVQAGGSLRLSCAASGRIFVYYAMGWYRQAPGKERELVATISSGGSTYYADSVKGRFTISRDNAKNTVYLQMNSLKPEDTAVYYCAADNVNRYLAYYYKGDYWGQGTQVTVSS,polyreactivity (PSR sort gate),low polyreactivity
QVQLVESGRGLVQAGGSLRLSCAASGRTFRAYAMGWYRQAPGKERELVAAISSRGGSTYYADSVKGRFTISRDNAKNTVYFQMNSLKPEDTAVYYCNVDRYVRGLITFDYWGQGTQVTVSS,polyreactivity (PSR sort gate),high polyreactivity
QVQLVESGRGLVQAGGSLRLSCAASGRTFSYYVMGWYRQAPGKERELVAAISDSGGSTYYADSVKGRFTISRDNAKNTVYLQMNSLKPEDTAVYYCATDSYWYRLREYNYWGQGTQVTVSS,polyreactivity (PSR sort gate),high polyreactivity
QVQLVESGRGLVQAGGSLRLSCAASGRTIKYYAMGWYRQAPGKDRELVAVISWSGGSTYYADSVKGRFTISRDNAKNTVYLQMNSLKPEDTAVYYCNAYVYAYYAGYNYWGQGTQLTVSS,polyreactivity (PSR sort gate),high polyreactivity
QVQLVESGRGLVQAGGSLRLSCAASGRTLAFNAMGWYRQAPGKERELVAVIRNGTSTNYADSVKGRFTISRDNAKNTVYLQMNSLKPEDTAVYYCNVPYYLPSYLSGYDYWGQGTQVTVSS,polyreactivity (PSR sort gate),low polyreactivity
QVQLVESGRGLVQAGGSLRLSCAASGSIFEQNVMGWYRQAPGKERELVAAITRGGSTNYADSVKGRFTISRDNAKNTVYLQMNSLKPEDTAVYYCSKRRWLGPSTLGYWGQGNQVTVSS,polyreactivity (PSR sort gate),low polyreactivity
QVQLVESGRGLVQAGGSLRLSCAASGSIFSSYAMGWYRQAPGKERELVAAITWSGGRTYYADSVKGRFTISRDNAKNTVYLQMNSLKPEDTAVYYCNAVYLAYGGDYWGQGTQVTVSS,polyreactivity (PSR sort gate),high polyreactivity
QVQLVESGRGLVQAGGSLRLSCAASGSILRNYAMGWYRQAPGKERELVAAISKSGGTTYYADSVKGRFTISRDNAKNTVYLQMNSLKPEDTAVYYCAARPGYLYDYWGQGTQVTVSS,polyreactivity (PSR sort gate),high polyreactivity
QVQLVESGRGLVQAGGSLRLSCAASGSILYSYAMGWYRQAPGKERELVAAISSSGGTNYAASVKGSFTISRDNAKNTVYLQMNSLKPEDTEVYYCNADVLDGGYDYWGQGTQVTVSS,polyreactivity (PSR sort gate),low polyreactivity
QVQLVESGRGLVQAGGSLRLSCAASGSTFGGYAMGWNRPAPGKERELVAAISIEGGSTYYAESVKGRFTISRDNAKNTVYLQMNSLKPEDTAVYYCNADEYYYGYNYWGQATQVTVSS,polyreactivity (PSR sort gate),low polyreactivity
QVQLVESGRGLVQAGGSLRLSCAASGSTFKRYVIGWYRQAPGKERELVAVINCSGGSTYADSVKGRYTISRDNAKNTVYLQMNSLKPEDTAVYYCAKYKYYRYWGQRTQVTVSS,polyreactivity (PSR sort gate),high polyreactivity
QVQLVESGRGLVQAGGSLRLSCAASGSTINYKAMGWYRQAPGKERELVAAIDSGVSTNYADSVKGLFTISRDHAKNTVYLQMNSLKPEDTAVYYCNADPDYFDYWGQGTQVTVSS,polyreactivity (PSR sort gate),low polyreactivity
QVQLVESGRGLVQAGGSLRLSCAASGSTLGVNAMGWYRQAPGKERELVAAISRSGTSTYYADSVKGRFTISRDNAKNTVYLQMNSLKPEDTAVYYCAAQYVIFGSRSRQFIEYEYWGQGTQVTVSS,polyreactivity (PSR sort gate),high polyreactivity
QVQLVESGRGLVQAGGSLRLSCAASGTYGYYAMGWYRQAPGKQRELVAAISGSGGSTYYADSVKGRFTISRDNAKNTVYLQMNSLKPEDTAVYYCAKRRRYGGRWVSGDYWGQGTQVTVSS,polyreactivity (PSR sort gate),high polyreactivity
QVQLVESGRGLVQAGGSLRLSGAASGITQDDYDMGWSRQAPGKQRELVAAITSGGSTNYAHSVKGRFTNSRDNATNTVYLQMNSLKPEDTAVYYCAADTARTRIFDYWGQGTQVTVSS,polyreactivity (PSR sort gate),low polyreactivity
